In patent US20200157212A1 (Pfizer, published 2020):

T1: Human ROBO2 Ig1-Ig2-His (human, UniProt Q9HCK4 31-220)
T1 construct: the His tag is named only in the SPR paragraphs; the Octet and ELISA paragraphs print 'ROBO2 Ig1-Ig2' without a tag; also called ROBO2 Ig1-2; Human ROBO2 Ig 1,2
T1 sequence: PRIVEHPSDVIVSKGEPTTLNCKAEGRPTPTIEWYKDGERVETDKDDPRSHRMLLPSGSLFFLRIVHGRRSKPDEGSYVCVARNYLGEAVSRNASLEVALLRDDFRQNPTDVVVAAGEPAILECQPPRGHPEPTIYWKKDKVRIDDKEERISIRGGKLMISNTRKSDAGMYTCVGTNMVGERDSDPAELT

T2: Cynomolgus monkey ROBO2 overexpressed on HEK293 cells (cynomolgus monkey, UniProt Q9HCK4 22-1378 (human entry))
T2 chain: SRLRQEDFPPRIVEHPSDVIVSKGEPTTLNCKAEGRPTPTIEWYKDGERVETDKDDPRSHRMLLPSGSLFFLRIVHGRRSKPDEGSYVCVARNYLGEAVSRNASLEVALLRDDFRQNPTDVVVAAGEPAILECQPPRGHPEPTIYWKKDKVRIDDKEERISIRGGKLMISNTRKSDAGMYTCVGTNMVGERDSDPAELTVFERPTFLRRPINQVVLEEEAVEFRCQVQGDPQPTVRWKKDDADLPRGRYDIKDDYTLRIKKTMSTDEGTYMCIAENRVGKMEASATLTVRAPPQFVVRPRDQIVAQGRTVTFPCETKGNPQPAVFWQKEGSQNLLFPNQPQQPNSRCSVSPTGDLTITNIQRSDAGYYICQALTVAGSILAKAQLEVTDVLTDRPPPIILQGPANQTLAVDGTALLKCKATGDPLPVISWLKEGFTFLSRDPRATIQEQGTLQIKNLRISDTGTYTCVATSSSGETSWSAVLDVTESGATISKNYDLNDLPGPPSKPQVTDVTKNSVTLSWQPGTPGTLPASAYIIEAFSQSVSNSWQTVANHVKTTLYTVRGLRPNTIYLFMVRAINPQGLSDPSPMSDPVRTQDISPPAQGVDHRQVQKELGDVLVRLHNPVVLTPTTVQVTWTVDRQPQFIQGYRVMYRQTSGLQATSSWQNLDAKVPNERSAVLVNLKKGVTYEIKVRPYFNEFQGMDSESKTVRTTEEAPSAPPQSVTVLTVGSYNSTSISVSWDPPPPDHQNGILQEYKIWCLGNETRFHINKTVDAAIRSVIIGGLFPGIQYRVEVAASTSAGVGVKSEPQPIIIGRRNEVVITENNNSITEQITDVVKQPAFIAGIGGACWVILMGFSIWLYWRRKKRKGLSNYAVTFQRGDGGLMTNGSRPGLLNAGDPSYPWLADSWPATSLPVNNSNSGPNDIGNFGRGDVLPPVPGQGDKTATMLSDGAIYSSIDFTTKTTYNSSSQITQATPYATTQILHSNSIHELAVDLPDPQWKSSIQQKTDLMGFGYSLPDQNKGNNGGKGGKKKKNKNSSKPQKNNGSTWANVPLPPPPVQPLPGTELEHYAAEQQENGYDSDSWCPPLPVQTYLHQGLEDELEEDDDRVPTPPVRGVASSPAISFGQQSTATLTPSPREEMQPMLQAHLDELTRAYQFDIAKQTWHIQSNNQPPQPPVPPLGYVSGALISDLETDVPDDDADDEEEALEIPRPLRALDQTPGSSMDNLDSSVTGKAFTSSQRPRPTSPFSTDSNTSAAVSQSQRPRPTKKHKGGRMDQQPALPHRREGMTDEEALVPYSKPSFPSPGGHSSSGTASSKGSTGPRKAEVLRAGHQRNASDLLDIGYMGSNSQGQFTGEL


How the values were obtained:
[1] = target: T1, Human ROBO2 Ig1-Ig2-His; experiment: Octet (BLI)
[2] = target: T2, Cynomolgus monkey ROBO2 overexpressed …; experiment: flow cytometry, HEK293 cells
Description: (§1) Using flow cytometry, improvement in the binding EC₅₀ to human ROBO2 relative to the parental 93H2 was evaluated. Starting at 6.7 nM, 11-point, 3-fold dilution series were made for each antibody and used to stain HEK293 overexpressing human ROBO2 as described above for the ROBO2 fold selectivity (Example 2). […] In addition to measuring improved binding to human ROBO2, it was important to ensure that high affinity binding to both cynomolgus monkey ROBO2 and rat ROBO2 was maintained. Using HEK293 cells overexpressing either cynomolgus monkey ROBO2 or rat ROBO2, the relative dose-dependent binding of 93H2, Abcs25 and Abcs35 was evaluated as described above. High affinity binding to both cynomolgus monkey and rat ROBO2 was maintained in Abcs25 and Abcs35 (Table 4). […] Briefly, Abcs35 was immobilized to 300 resonance units (RU) on a CM5 chip. Association of ROBO2 Ig1-Ig2-His (ROBO2) was measured over 5 minutes and dissociation was followed for a period of 10 minutes.
(§2) The binding profile of Abcs35-J compared to Abcs35 was determined for human ROBO2, orthologs from cynomolgus monkey and rat, human ROBO1 and specificity for the RSK epitope from ROBO2 but not KSR from ROBO1. Binding was assessed by flow cytometry as described in Examples 2 (homolog specificity), Example 3 (ortholog reactivity) and Example 5 (RSK vs KSR epitope specificity). […] Binding of the antibodies was detected using a secondary fluorochrome conjugated anti-human IgG F(ab′)₂ antibody and samples analyzed on a Fortessa cytometer (BD Biosciences).

[3] = target: T3, Human ROBO1 RSK mutant overexpressed on HEK293 cells (human, UniProt Q9Y6N7 26-1651); experiment: flow cytometry, HEK293 cells
T3 construct: K137R and R139K already in the entry; also called ROBO1-RSK cells
Description: as §1, §2

[4] = target: T1, Human ROBO2 Ig1-Ig2-His; experiment: Octet and SPR, against the parental antibody
[5] = target: T4, Human ROBO1 overexpressed on HEK293 cells (human, UniProt Q9Y6N7 26-1651); experiment: flow cytometry on HEK293 cells overexpressing human ROBO1
T4 construct: also called ROBO1 cells
Description: as §2, with “Biosciences). […] FIGS. 16A-16F depicts binding profiles of Abcs35 (black circles) or Abcs35-J (grey squares) to human ROBO2 (FIG. 16A), cynomolgus monkey ROBO2 (FIG. 16B), rat ROBO2 (FIG. 16C), human ROBO1 (FIG. 16D), ROBO1 containing the ROBO2 RSK epitope (FIG. 16E) or ROBO2 containing the ROBO1 KSR epitope (FIG. 16 F).” for “Biosciences).”

T4 sequence (Q9Y6N7 26-1651 limits assumed): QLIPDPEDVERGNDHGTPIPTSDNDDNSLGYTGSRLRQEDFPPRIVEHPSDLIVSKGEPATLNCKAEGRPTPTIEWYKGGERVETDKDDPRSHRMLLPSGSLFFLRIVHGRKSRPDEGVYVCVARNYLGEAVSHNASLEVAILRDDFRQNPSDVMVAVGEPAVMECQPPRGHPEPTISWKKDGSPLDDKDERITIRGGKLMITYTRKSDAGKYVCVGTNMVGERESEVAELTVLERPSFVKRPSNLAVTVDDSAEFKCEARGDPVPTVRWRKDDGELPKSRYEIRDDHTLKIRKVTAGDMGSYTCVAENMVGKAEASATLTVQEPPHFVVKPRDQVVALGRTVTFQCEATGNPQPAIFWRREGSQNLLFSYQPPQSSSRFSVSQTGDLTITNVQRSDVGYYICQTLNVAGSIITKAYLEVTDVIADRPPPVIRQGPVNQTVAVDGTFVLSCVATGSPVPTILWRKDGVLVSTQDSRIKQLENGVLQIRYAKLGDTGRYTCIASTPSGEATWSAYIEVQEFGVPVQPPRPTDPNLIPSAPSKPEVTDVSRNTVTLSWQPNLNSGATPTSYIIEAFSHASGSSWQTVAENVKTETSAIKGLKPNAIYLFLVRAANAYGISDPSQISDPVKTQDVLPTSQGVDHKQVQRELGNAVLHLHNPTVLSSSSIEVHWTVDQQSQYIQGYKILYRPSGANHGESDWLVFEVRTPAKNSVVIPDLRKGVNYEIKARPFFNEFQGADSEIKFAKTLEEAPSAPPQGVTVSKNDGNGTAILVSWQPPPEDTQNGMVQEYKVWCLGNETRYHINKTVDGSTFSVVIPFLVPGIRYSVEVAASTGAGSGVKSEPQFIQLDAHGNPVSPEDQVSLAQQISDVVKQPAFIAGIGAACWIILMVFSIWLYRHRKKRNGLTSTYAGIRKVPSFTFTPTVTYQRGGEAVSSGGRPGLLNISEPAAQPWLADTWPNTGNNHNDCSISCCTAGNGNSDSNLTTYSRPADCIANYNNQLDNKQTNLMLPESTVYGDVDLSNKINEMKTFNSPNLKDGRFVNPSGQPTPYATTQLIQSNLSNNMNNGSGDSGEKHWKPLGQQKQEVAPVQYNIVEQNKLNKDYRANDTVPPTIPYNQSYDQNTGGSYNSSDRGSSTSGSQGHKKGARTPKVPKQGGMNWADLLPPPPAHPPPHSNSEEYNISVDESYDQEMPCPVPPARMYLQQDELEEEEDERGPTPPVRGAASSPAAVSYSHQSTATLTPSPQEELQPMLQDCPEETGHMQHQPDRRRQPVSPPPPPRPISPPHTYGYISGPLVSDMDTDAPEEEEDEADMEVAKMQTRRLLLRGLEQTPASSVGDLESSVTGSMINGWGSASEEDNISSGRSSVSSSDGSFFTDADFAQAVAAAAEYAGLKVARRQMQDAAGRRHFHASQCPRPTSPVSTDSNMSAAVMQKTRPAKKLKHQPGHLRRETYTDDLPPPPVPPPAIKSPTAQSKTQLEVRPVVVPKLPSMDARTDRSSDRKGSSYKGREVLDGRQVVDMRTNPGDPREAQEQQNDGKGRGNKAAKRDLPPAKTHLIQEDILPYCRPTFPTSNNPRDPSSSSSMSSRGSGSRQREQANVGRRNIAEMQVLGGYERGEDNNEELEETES
T3 sequence (Q9Y6N7 other isoform, or with tags, fused parts or gaps mutant limits assumed): as the sequence (Q9Y6N7 26-1651 limits assumed) above, with K112R, R114K counted along it

Row | Kd [1] [nM] | Binder | EC50 [2] [nM] | EC50 [3] [nM] | fold affinity improvement [4] [fold] | binding result [5]
1 | 37 | 93H2 (antibody, human IgG1, kappa, V domains shown, also called parental 93H2; 93H2 mAb) VH: EVQLVQSGAEVKKPGASVKVSCKASGYTFTGYYMHWVRQAPGQGLEWMGWINPNSGATNFPQKFQGRVTMTRDTSITTAYMDLSRLRSDDTAVYYCARESGDDAFDIWGQGTMVTVSS VL: not shown |  |  |  | 
2 |  | Abcs35 (antibody, human IgG1, kappa, fully human IgG1; VH of Ab96 with VL of Ab123) heavy: EVQLVQSGAEVKKPGASVKVSCKASGYTFTGYYMHWVRQAPGQGLEWMGWINPKNGDTEFPQKFQGRVTMTRDTSITTAYMDLSRLRSDDTAVYYCARESGDDAFDIWGQGTMVTVSSASTKGPSVFPLAPSSKSTSGGTAALGCLVKDYFPEPVTVSWNSGALTSGVHTFPAVLQSSGLYSLSSVVTVPSSSLGTQTYICNVNHKPSNTKVDKKVEPKSCDKTHTCPPCPAPEAAGAPSVFLFPPKPKDTLMISRTPEVTCVVVDVSHEDPEVKFNWYVDGVEVHNAKTKPREEQYNSTYRVVSVLTVLHQDWLNGKEYKCKVSNKALPAPIEKTISKAKGQPREPQVYTLPPSREEMTKNQVSLTCLVKGFYPSDIAVEWESNGQPENNYKTTPPVLDSDGSFFLYSKLTVDKSRWQQGNVFSCSVMHEALHNHYTQKSLSLSPGK light: DIVMTQSPSSLSASVGDRVTITCRASQSISSYLNWYQQKPGKAPKLLIYAASSLQSGVPSRFSGSGSGTDFTLTISSLQPEDFATYYCQQSVGLFFGGGTKVEIKRTVAAPSVFIFPPSDEQLKSGTASVVCLLNNFYPREAKVQWKVDNALQSGNSQESVTEQDSKDSTYSLSSTLTLSKADYEKHKVYACEVTHQGLSSPVTKSFNRGEC | 0.111 | 0.077 | ~300 | no binding (tested: last point just below 10^1 nM)
3 |  | Abcs35-J (antibody, human IgG1, kappa, germlined variant of Abcs35; also called ABCS-J) heavy: EVQLVQSGAEVKKPGASVKVSCKASGYTFTGYYMHWVRQAPGQGLEWMGWINPKNGDTEFPQKFQGRVTMTRDTSITTAYMELSRLRSDDTAVYYCARESGDDAFDIWGQGTMVTVSSASTKGPSVFPLAPSSKSTSGGTAALGCLVKDYFPEPVTVSWNSGALTSGVHTFPAVLQSSGLYSLSSVVTVPSSSLGTQTYICNVNHKPSNTKVDKKVEPKSCDKTHTCPPCPAPEAAGAPSVFLFPPKPKDTLMISRTPEVTCVVVDVSHEDPEVKFNWYVDGVEVHNAKTKPREEQYNSTYRVVSVLTVLHQDWLNGKEYKCKVSNKALPAPIEKTISKAKGQPREPQVYTLPPSREEMTKNQVSLTCLVKGFYPSDIAVEWESNGQPENNYKTTPPVLDSDGSFFLYSKLTVDKSRWQQGNVFSCSVMHEALHNHYTQKSLSLSPGK light: not shown | 0.099 | 0.079 |  | no binding (tested: last point just below 10^1 nM)
